Data on 167 variants can be found in the RNAGym collection of RNA variant scans (doi:10.7554/elife.90254).

Sequences and labels used below:
B1: LINE1-mini (parent)
chain: GGCAGAGCUCAACACAGCGUGGCAAAGUGGCUGUGGCUAGACUGCC

This series covers variants of B1. The series is described as follows: self-cleavage, relative activity (ratio to wild type); higher = more cleavage; in vitro, sequencing; the parent is a self-cleaving ribozyme.
For C13G G35A, the self-cleavage worked out at 0.07. Under C13G G35U stands 0.85. As for C13G G35C, the figure is 0.81. Under C13A C18A stands 0.09; under C13A C18U, 0.09; under C13A C18G, 0.12. With C13A C31A, the self-cleavage turned out to be 0.06. In the case of C13A C31U, the self-cleavage is 0.09. As for C13A C31G, the figure is 0.06; as for C13A G17C, 0.1; as for C13A G17U, 0.11. Under C13A G17A stands 0.1.

As for A12U G36U, the self-cleavage was determined as 0.16. A12U G36C: the self-cleavage was 0.04. Under A12U G36A stands 0.04; under C13A A41C, 0.06; under C13A A41G, 0.12. Under C13A A41U stands 0.14; under C13A G35A, 0.15; under C13A G35C, 0.07.

As to C13A G35U, the self-cleavage was determined as 1.13. With C13G A39U, the self-cleavage was found to be 0.05. Under C13G A39G stands 0.09; under C13G A39C, 0.16; under A12U U34A, 0.03.

In the case of A12U U34C, the self-cleavage was 0.03. Under A12U U34G stands 0.04; under C13G C37G, 0.04. Under C13G C37A stands 0.13.

Take C13G C37U: the self-cleavage worked out at 0.37. As for C13U C37U, the figure is 0.11. Under C13U C37A stands 0.27; under C13U C37G, 0.1. As for C13U G17C, the figure is 0.11; as for C13U G17U, 0.12; as for C13U G17A, 0.1. With C13U A41U, the self-cleavage turned out to be 0.15. On to C13U A41G, for which the self-cleavage turned out to be 0.06.

On to C13U A41C, for which the self-cleavage worked out at 0.06. C13U G27A: the self-cleavage worked out at 0.17. Under C13U G27U stands 0.17; under C13U G27C, 0.06; under A12U G21A, 0.52. As for A12U G21C, the figure is 0.21; as for A12U G21U, 0.34. Turning to C13A C42G, the self-cleavage came to 0.08. With C13A C42U, the self-cleavage is 0.09. Under C13A C42A stands 0.09; under A12U G44C, 0.17. Under A12U G44A stands 0.22. Under A12U G44U stands 0.11. In the case of A12U G19U, the self-cleavage worked out at 0.19. Take A12U G19C: the self-cleavage came to 0.32. For the variant A12U G19A, the self-cleavage amounted to 0.42. Regarding A12U G22C, the self-cleavage amounted to 0.26.

Take A12U G22U: the self-cleavage is 0.29. As to A12U G22A, the self-cleavage was 0.4.

On to C13A C46A, for which the self-cleavage is 0.07.

As for C13A C46G, the self-cleavage worked out at 0.06.

As for C13A C46U, the self-cleavage turned out to be 0.08. As for C13G U34C, the figure is 0.1; as for C13G U34G, 0.03; as for C13G U34A, 0.04. Take C13U A39G: the self-cleavage was 0.11. As for C13U A39C, the figure is 0.13; as for C13U A39U, 0.08.

As for C13G G44A, the self-cleavage worked out at 0.12. Consider C13G G44C, for which the self-cleavage worked out at 0.05. C13G G44U: the self-cleavage turned out to be 0.06. Under A12U U38C stands 0.14; under A12U U38A, 0.09. With A12U U38G, the self-cleavage was 0.02.

For C13G G22A, the self-cleavage was 0.21. Under C13G G22C stands 0.05. In the case of C13G G22U, the self-cleavage amounted to 0.18. Under C13G C42G stands 0.09; under C13G C42A, 0.07; under C13G C42U, 0.12. As for C13G G30U, the figure is 0.19; as for C13G G30A, 0.15. Under C13G G30C stands 0.12; under C13G G19A, 0.2; under C13G G19C, 0.06. As for C13G G19U, the self-cleavage stood at 0.11. For C13G G40C, the self-cleavage was determined as 0.14.

Consider C13G G40A, for which the self-cleavage turned out to be 0.13. For the variant C13G G40U, the self-cleavage was 0.08. Take C13G G33C: the self-cleavage came out at 0.04. Take C13G G33A: the self-cleavage came out at 0.11. As to C13G G33U, the self-cleavage amounted to 0.03. In the case of C13U A25U, the self-cleavage is 0.29. As for C13U A25C, the figure is 0.13. Consider C13U A25G, for which the self-cleavage is 0.07. For the variant C13U G33C, the self-cleavage is 0.06. Under C13U G33U stands 0.06; under C13U G33A, 0.07; under C13A G33U, 0.05. Under C13A G33A stands 0.08; under C13A G33C, 0.06. Turning to C13U C18A, the self-cleavage is 0.07. Under C13U C18U stands 0.12; under C13U C18G, 0.05; under C13U C46G, 0.09. Consider C13U C46U, for which the self-cleavage is 0.3. Under C13U C46A stands 0.22; under C13A G19U, 0.09; under C13A G19A, 0.15.

For the variant C13A G19C, the self-cleavage worked out at 0.06.

In the case of C13U C23A, the self-cleavage was 0.26. Take C13U C23U: the self-cleavage was found to be 0.22.

Consider C13U C23G, for which the self-cleavage is 0.06.

In the case of C13G G17A, the self-cleavage came out at 0.06. Under C13G G17C stands 0.03; under C13G G17U, 0.06; under C13G G21C, 0.33. With C13G G21A, the self-cleavage turned out to be 0.38. As for C13G G21U, the figure is 0.31; as for C13U G29U, 0.21. Under C13U G29C stands 0.09. On to C13U G29A, for which the self-cleavage came out at 0.28. Consider C13A G36C, for which the self-cleavage came to 0.06. As for C13A G36A, the figure is 0.23. For C13A G36U, the self-cleavage was 0.12. As for C13G G27A, the figure is 0.27; as for C13G G27C, 0.08. Turning to C13G G27U, the self-cleavage stood at 0.26. Take C13U G30U: the self-cleavage worked out at 0.15. Consider C13U G30A, for which the self-cleavage amounted to 0.15. As for C13U G30C, the figure is 0.09; as for C13A C45A, 0.08. For the variant C13A C45U, the self-cleavage amounted to 0.15. For the variant C13A C45G, the self-cleavage stood at 0.09. As for C13G C18G, the self-cleavage was found to be 0.07. For C13G C18A, the self-cleavage came out at 0.09. Under C13G C18U stands 0.09; under C13A G22C, 0.05; under C13A G22A, 0.15. Under C13A G22U stands 0.11; under A12U G40U, 0.17.

For A12U G40C, the self-cleavage worked out at 0.06. As for A12U G40A, the self-cleavage was 0.21. Under C13A A24G stands 0.11; under C13A A24U, 0.08; under C13A A24C, 0.18. Take C13U A24U: the self-cleavage is 0.16. For C13U A24G, the self-cleavage turned out to be 0.13. As for C13U A24C, the self-cleavage came to 0.15.

For the variant A12U G33C, the self-cleavage is 0.03.

For A12U G33U, the self-cleavage amounted to 0.04. As for A12U G33A, the figure is 0.05; as for C13U C42A, 0.09. In the case of C13U C42G, the self-cleavage was found to be 0.08. For C13U C42U, the self-cleavage turned out to be 0.09.

In the case of C13U A16U, the self-cleavage worked out at 0.13. In the case of C13U A16G, the self-cleavage came to 0.09.

C13U A16C: the self-cleavage is 0.1. As for C13G U43C, the figure is 0.02; as for C13G U43G, 0.66. As for C13G U43A, the figure is 0.11. As for C13A U38G, the figure is 0.03; as for C13A U38C, 0.1; as for C13A U38A, 0.05. C13A U20A: the self-cleavage amounted to 0.11.

On to C13A U20C, for which the self-cleavage was 0.04. Under C13A U20G stands 0.1; under C13G C15A, 0.1; under C13G C15U, 0.15.
